Measurements taken from US20040235726A1, “Glucagon-like peptides (glp-1) and treatment of respiratory distress” (priority 2001, published 2004).
Where no end group is shown, it is not given here.

Target: human GLP-1 receptor (human, UniProt P43220 24-463)
Experiment: cell-based or functional assay

Binder | GLP-1 receptor activation relative to Val^8-GLP-1 (7-37) OH
HVEGTFTSDLSSYLEGQAAKEFIAWLVKGRG-OH [Val^8-Leu^16-GLP-1 (7-37) OH] | 1.1 relative to Val^8-GLP-1 (7-37) OH
HVEGTFTSDVSSYLEGQAAEEFIAWLVKGRG-OH [Val^8-Glu^26-GLP-1 (7-37) OH] | 3.3 relative to Val^8-GLP-1 (7-37) OH
HVEGTFTSDVSSYLEGQAAKEFIAWLVKHRG-OH [Val^8-His^35-GLP-1 (7-37) OH] | 0.9 relative to Val^8-GLP-1 (7-37) OH
HVEGTFTSDVSSYLEGQAAKEFISWLVKGRG-OH [Val^8-Ser^30-GLP-1 (7-37) OH] | 0.4 relative to Val^8-GLP-1 (7-37) OH
HVEGTFTSDVSSYLEEQAIKEFIAWLVKGRG-OH [Val^8-Glu^22-Ile^25-GLP-1 (7-37) OH] | 3.1 relative to Val^8-GLP-1 (7-37) OH
HVEGTFTSDWSSYLEEQAVKEFIAWLVKGRG-OH [Val^8-Trp^16-Glu^22-Val^25-GLP-1 (7-37) OH] | 4.4 relative to Val^8-GLP-1 (7-37) OH
HVEGTFTSDVSFYLEEQAAKEFIAWLVKGRG-OH [Val^8-Phe^18-Glu^22-GLP-1 (7-37) OH] | 2 relative to Val^8-GLP-1 (7-37) OH
HVDGIFTSDYSSYLEEQAAKEFIAWLVKGRG-OH [Val^8-Asp^9-Ile^11-Tyr^16-Glu^22-GLP-1 (7-37) OH] | 4.3 relative to Val^8-GLP-1 (7-37) OH
HVEGTFTSDVSSYLEGQAAKEFIDWLVKGRG-OH [Val^8-Asp^30-GLP-1 (7-37) OH] | 0.3 relative to Val^8-GLP-1 (7-37) OH
HVEGTFTSDVSSYLEEQAAKEFIAWLVKGRH-OH [Val^8-Glu^22-His^37-GLP-1 (7-37) OH] | 4.7 relative to Val^8-GLP-1 (7-37) OH
HVEGTFTSDVSSYKEGQAAKEFIAWLVKGRG-OH [Val^8-Lys^20-GLP-1 (7-37) OH] | 0.7 relative to Val^8-GLP-1 (7-37) OH
HVEGTFTSDVSSYLEGQAAKEFIAWLAKGRG-OH [Val^8-Ala^33-GLP-1 (7-37) OH] | 0.2 relative to Val^8-GLP-1 (7-37) OH
HVEGTYTSDYSSYLEGQAAKEFIAWLVKGRG-OH [Val^8-Tyr^12-Tyr^16-GLP-1 (7-37) OH] | 1.5 relative to Val^8-GLP-1 (7-37) OH
HVEGTFTSDYSSFLEGQAAKEFIAWLVKGRG-OH [Val^8-Tyr^16-Phe^19-GLP-1 (7-37) OH] | 2.8 relative to Val^8-GLP-1 (7-37) OH
HVEGTFTSDVSSYLEGQAAKEFIAWLVEGRG-OH [Val^8-Glu^34-GLP-1 (7-37) OH] | 0.4 relative to Val^8-GLP-1 (7-37) OH
HVEGTFTSDVSKYLEEQAAKEFIAWLVKGRG-OH [Val^8-Lys^18-Glu^22-GLP-1 (7-37) OH] | 2.5 relative to Val^8-GLP-1 (7-37) OH
HGEGHFTSDVSSYLEGQAAKEFIAWLVKGRG-OH [Gly^8-His^11-GLP-1 (7-37) OH] | 0.6 relative to Val^8-GLP-1 (7-37) OH
HVEGTFTSDVSSYLEKQAAKEFIAWLVKGRG-OH [Val^8-Lys^22-GLP-1 (7-37) OH] | 1.3 relative to Val^8-GLP-1 (7-37) OH
HVEGTFTSDVSSYFEEQAAKEFIAWLVKGRG-OH [Val^8-Phe^20-Glu^22-GLP-1 (7-37) OH] | 2.7 relative to Val^8-GLP-1 (7-37) OH
HVEGTFTSDLSSYLEEQAAKEFIAWLVKGRG-OH [Val^8-Leu^16-Glu^22-GLP-1 (7-37) OH] | 4.3 relative to Val^8-GLP-1 (7-37) OH
HVEGTFTSDFSSYLEEQAAKEFIAWLVKGRG-OH [Val^8-Phe^16-Glu^22-GLP-1 (7-37) OH] | 2.3 relative to Val^8-GLP-1 (7-37) OH
HVEGTFTSDISSYLEEQAAKEFIAWLVKGRG-OH [Val^8-Ile^16-Glu^22-GLP-1 (7-37) OH] | 3.3 relative to Val^8-GLP-1 (7-37) OH
HVEGTFTSDYSSWLEEQAAKEFIAWLVKGRG-OH [Val^8-Tyr^16-Trp^19-Glu^22-GLP-1 (7-37) OH] | 3.5 relative to Val^8-GLP-1 (7-37) OH
HVEGTFTSDVSSYLEGQAAKEFIHWLVKGRG-OH [Val^8-His^30-GLP-1 (7-37) OH] | 0.4 relative to Val^8-GLP-1 (7-37) OH
HVEGTFTSDVSIYLEEQAAKEFIAWLVKGRG-OH [Val^8-Ile^18-Glu^22-GLP-1 (7-37) OH] | 4 relative to Val^8-GLP-1 (7-37) OH
HVEGTFTSDVSSYLEGQAAHEFIAWLVKGRG-OH [Val^8-His^26-GLP-1 (7-37) OH] | 3.5 relative to Val^8-GLP-1 (7-37) OH

Binder | GLP-1 receptor activation relative to Val^8-GLP-1 (7-37) OH
HAEGTFTSDVSSYLEQQAAKEFIAWLVKGRG-OH [Gln^22-GLP-1 (7-37) OH] | 0.9 relative to Val^8-GLP-1 (7-37) OH
HVEGTFTSDWSSYLEEQAVKEFIAWLIKGRG-OH [Val^8-Trp^16-Glu^22-Val^25-Ile^33-GLP-1 (7-37) OH] | 5 relative to Val^8-GLP-1 (7-37) OH
HVEGTFTSDWSSYLEEQAAKEFIAWLIKGRG-OH [Val^8-Trp^16-Glu^22-Ile^33-GLP-1 (7-37) OH] | 4.1 relative to Val^8-GLP-1 (7-37) OH
HVEGTFTSDVSSYLEGQALKEFIAWLVKGRG-OH [Val^8-Leu^25-GLP-1 (7-37) OH] | 0.5 relative to Val^8-GLP-1 (7-37) OH
HVEGTYTSDVSSYLEGQAAKEFIAWLVKGR-NH2 [Val^8-Tyr^12-GLP-1 (7-36) NH2] | 1.1 relative to Val^8-GLP-1 (7-37) OH
HVEGTFTSDVSSYLEDQAAKEFIAWLVKGRG-OH [Val^8-Asp^22-GLP-1 (7-37) OH] | 0.9 relative to Val^8-GLP-1 (7-37) OH
HVEGTFTSDVSSYLEAQAAKEFIAWLVKGRG-OH [Val^8-Ala^22-GLP-1 (7-37) OH] | 1.2 relative to Val^8-GLP-1 (7-37) OH
HVEGTFTSDVSSYLEGQAAKEFIAWLVKPRG-OH [Val^8-Pro^35-GLP-1 (7-37) OH] | 0.2 relative to Val^8-GLP-1 (7-37) OH
HVEGTFTSDVSSFLEEQAAKEFIAWLVKGRG-OH [Val^8-Phe^19-Glu^22-GLP-1 (7-37) OH] | 1.5 relative to Val^8-GLP-1 (7-37) OH
HVEGTFTSDVSSYLESQAAKEFIAWLVKGRG-OH [Val^8-Ser^22-GLP-1 (7-37) OH] | 1.1 relative to Val^8-GLP-1 (7-37) OH
HVEGTYTSDVSSYLEEQAAKEFIAWLVKGRG-OH [Val^8-Tyr^12-Glu^22-GLP-1 (7-37) OH] | 2.7 relative to Val^8-GLP-1 (7-37) OH
HVEGTFTSDESSYLEGQAAKEFIAWLVKGRG-OH [Val^8-Glu^16-GLP-1 (7-37) OH] | 0.1 relative to Val^8-GLP-1 (7-37) OH
HVEGTWTSDVSSYLEGQAAKEFIAWLVKGRG-OH [Val^8-Trp^12-GLP-1 (7-37) OH] | 1.1 relative to Val^8-GLP-1 (7-37) OH
HVEGTFTSDVSSYLEHQAAKEFIAWLVKGRG-OH [Val^8-His^22-GLP-1 (7-37) OH] | 0.3 relative to Val^8-GLP-1 (7-37) OH
HVEGTFTSDVSSYLEEQAAKIFIAWLVKGRG-OH [Val^8-Glu^22-Ile^27-GLP-1 (7-37) OH] | 2 relative to Val^8-GLP-1 (7-37) OH
HGEGTFTSDVSSYLEGQAAKEFIEWLVKGRG-OH [Gly^8-Glu^30-GLP-1 (7-37) OH] | 0.6 relative to Val^8-GLP-1 (7-37) OH
HVEGTFTSDVSSYLEEQALKEFIAWLVKGRG-OH [Val^8-Glu^22-Leu^25-GLP-1 (7-37) OH] | 2.8 relative to Val^8-GLP-1 (7-37) OH
HVEGTWTSDVSSYLEEQAAKEFIAWLVKGRG-OH [Val^8-Trp^12-Glu^22-GLP-1 (7-37) OH] | 1.7 relative to Val^8-GLP-1 (7-37) OH
HVEGTFTSDVSSYLEKQAAKEFIAWLVKGR-NH2 [Val^8-Lys^22-GLP-1 (7-36) NH2] | 1.2 relative to Val^8-GLP-1 (7-37) OH
HVEGTFTSDVSSYLEGKAAKEFIAWLVKGRG-OH [Val^8-Lys^23-GLP-1 (7-37) OH] | 0.4 relative to Val^8-GLP-1 (7-37) OH
HVEGTFTSDVSSWLEEQAAKEFIAWLVKGRG-OH [Val^8-Trp^19-Glu^22-GLP-1 (7-37) OH] | 3.2 relative to Val^8-GLP-1 (7-37) OH
HVEGTFTSDASSYLEGQAAKEFIAWLVKGRG-OH [Val^8-Ala^16-GLP-1 (7-37) OH] | 0.25 relative to Val^8-GLP-1 (7-37) OH
HGEGTFTSDVSSYLEGQAAKEFIAWLVKGRG-OH [Gly^8-GLP-1 (7-37) OH] | 1.7 relative to Val^8-GLP-1 (7-37) OH
HVEGTFTSDVSSYLEEQAAKEFIAWLVKGRG-OH [Val^8-Glu^22-GLP-1 (7-37) OH] | 2.9 relative to Val^8-GLP-1 (7-37) OH
HVEGTFTSDVSSYLEGQAAKHFIAWLVKGRG-OH [Val^8-His^27-GLP-1 (7-37) OH] | 0.8 relative to Val^8-GLP-1 (7-37) OH
